Measurements taken from article PMC4072508, “Genome-Wide Prediction and Validation of Peptides That Bind Human Prosurvival Bcl-2 Proteins” (PLoS Computational Biology, 2014).

T1: Mcl-1, Q07820
T1 chain: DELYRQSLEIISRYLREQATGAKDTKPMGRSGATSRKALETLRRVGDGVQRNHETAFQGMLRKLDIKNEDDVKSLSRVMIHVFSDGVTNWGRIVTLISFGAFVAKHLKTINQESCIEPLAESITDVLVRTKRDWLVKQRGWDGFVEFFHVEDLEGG


Key:
Bcl-xL, Q07817 = test: peptide SPOT array, c-Myc-tagged receptor at 1 uM or 100 nM, anti-c-Myc-Cy3
Mcl-1, Q07820 = biological target: T1, Mcl-1, Q07820; test: as above

Sequence of Bcl-xL, Q07817 (Q07817 1-209): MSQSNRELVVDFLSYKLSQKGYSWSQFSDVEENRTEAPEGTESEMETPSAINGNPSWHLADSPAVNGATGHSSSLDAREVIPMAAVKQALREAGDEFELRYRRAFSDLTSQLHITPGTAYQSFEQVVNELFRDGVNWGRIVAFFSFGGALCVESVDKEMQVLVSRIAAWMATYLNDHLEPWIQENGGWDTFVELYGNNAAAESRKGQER

| Binder | SPOT signal as a fraction of Bim BH3's signal on the same receptor and array (Bcl-xL, Q07817) | SPOT signal as a fraction of Bim BH3's signal on the same receptor and array (Mcl-1, Q07820) |
| --- | --- | --- |
| TLHFNQRGTWLASGLDDLKVVVWDWV | 0.02 | 0.02 |
| GLFSATSGVDDKYVADTFGQEVRPVS [DDX7] | 0.02 | 0.01 |
| DLLGMVVVDELHMLLDSHRGYLLELL [POLQ] | 0.02 | 0.02 |
| AIKWDPTGNLDASCSDDMTLKIWSMK [TBL1XR1] | 0.03 | 0.03 |
| RCELQICGLAMADALEYLCVCGQERT [OBSCN] | 0.02 | 0.02 |
| DVGTGAGLLEIKKILDEYFTFITDCK | 0.02 | 0.02 |
| SRQPRDFGDSLARGLKGFLRGVVGGV [VPS13C] | 0.34 | 0.18 |
| VLSRIEAGRSLKSVMDEFGISKSTFY | 0.11 | 0.11 |
| FRLAQMCGLHIVVHLDELEELINYYQ | 0.02 | 0.02 |
| ISDVQVFGYSLRFNLDLLRSAVQQVN [DBC1] | 0.03 | 0.02 |
| KRALIQCAKDDAKASDEVTRLAKEVA | 0.05 | 0.02 |
| KRALIQCAKDIAKALDEVTRLAKEVA | 0.21 | 0.05 |
| ITVVGDVGGRDAIIVDDIIDDVESFV [PRPSAP1] | 0.02 | 0.01 |
| LSPGRSVTAGIIIVGDEILKGHTQDT [FLAD1] | 0.01 | 0.01 |
| LRCEMASTGEDACFGEGIHTAFLKAM [CPS1] | 0.02 | 0.03 |
| ELQAPATVQSLGLLGDRLCVGAAGGF [CDC42BPG] | 0.01 | 0.01 |
| KKCQDMIMTELTNAGDDVVVFYNDKA [ITPR3] | 0.02 | 0.01 |
| AVLCVECGYKDRFFGEDAEIAARELN [MSH3] | 0.02 | 0.02 |
| DVGTGAGLLEDKKIGDEYFTFITDCK | 0.01 | 0.01 |
| TPSRSALSSELSLVLDTTGDTLEKFV | 0.02 | 0.01 |
| TLHFNQRGTWLASGSDDLKVVVWDWV | 0.02 | 0.02 |
| EKVLIFGGDIDKFAGDALLALWRVER [ADCY10] | 0.02 | 0.02 |
| KLPVVGIGKHLCGMATDLALRCLVET | 0.04 | 0.03 |

Results, then the binder that gave them:

| SPOT signal as a fraction of Bim BH3's signal on the same receptor and array (Bcl-xL, Q07817) | SPOT signal as a fraction of Bim BH3's signal on the same receptor and array (Mcl-1, Q07820) | Binder |
| --- | --- | --- |
| 0.02 | 0.02 | FRLAQMCGLHIVVHADELEELINYYQ |
| 0.04 | 0.04 | CDLLGAKGKDILYIGDHIFGDILKSK [NT5C2] |
| 0.01 | 0.01 | CALLGSTGERDCLAGDSAGGNLCFTV [LIPE] |
| 0.02 | 0.01 | AALFLHAGCQLLTALEDGKVQVWSGS [TEP1] |
| 0.02 | 0.02 | VLSRIEAGRSDKSVMDEFGISKSTFY |
| 0.12 | 0.03 | GSGLHGWAFTDKQFAEMYVAKFAAKG [EEF2] |
| 0.03 | 0.03 | AKFLLYLGHSDSTWGDRMWHFAVSVF [SLC40A1] |
| 0.02 | 0.02 | DLSAVTLSRELQAMAEQLAENYHNTW [RYR1] |
| 0.04 | 0.03 | KLPVVGIGKHLCGMLTDLALRCLVET |
| 0.02 | 0.01 | DEHISYVATKVCHLGDQLEGVNTPRQ [EXOC5] |
| 0.04 | 0.05 | RHFVIRRGQVLREILEEYGGVMVSFP [HDLBP] |
| 0.01 | 0.02 | DHTDGVVACAAGLILDLCTAFGKDVL |
| 0.05 | 0.03 | QRLINLVGESLRLLGNTFVALSDLRC |
| 0.02 | 0.02 | DHTDGVVACAAGLIGDLCTAFGKDVL |
| 0.08 | 0.02 | QRLINLVGESDRLLGNTFVALSDLRC |
| 0.01 | 0.01 | TPSRSALSSEDSLVGDTTGDTLEKFV |
| 0.02 | 0.03 | FRFAQLCGLHIVIHLDELEELMCYYQ [CLTCL1] |
| 0.29 | 0.24 | CILNSFYGYVMRKGLRWYSMEMAGIV [POLE] |
